T1: Oryza sativa trehalose-6-phosphate phosphatase, wild type (OsT6PP-WT)
T1 chain: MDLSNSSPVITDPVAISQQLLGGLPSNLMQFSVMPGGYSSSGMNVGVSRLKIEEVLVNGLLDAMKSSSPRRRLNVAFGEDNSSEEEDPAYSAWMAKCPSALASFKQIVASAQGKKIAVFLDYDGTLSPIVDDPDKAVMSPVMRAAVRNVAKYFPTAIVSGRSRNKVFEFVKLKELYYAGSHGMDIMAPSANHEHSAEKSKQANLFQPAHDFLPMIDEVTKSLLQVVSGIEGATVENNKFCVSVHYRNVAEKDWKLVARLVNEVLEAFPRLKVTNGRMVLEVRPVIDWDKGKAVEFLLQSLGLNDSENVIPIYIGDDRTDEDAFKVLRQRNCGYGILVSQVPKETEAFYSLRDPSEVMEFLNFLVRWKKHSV

T2: N-terminal truncated OsT6PP-D56NT
T2 chain: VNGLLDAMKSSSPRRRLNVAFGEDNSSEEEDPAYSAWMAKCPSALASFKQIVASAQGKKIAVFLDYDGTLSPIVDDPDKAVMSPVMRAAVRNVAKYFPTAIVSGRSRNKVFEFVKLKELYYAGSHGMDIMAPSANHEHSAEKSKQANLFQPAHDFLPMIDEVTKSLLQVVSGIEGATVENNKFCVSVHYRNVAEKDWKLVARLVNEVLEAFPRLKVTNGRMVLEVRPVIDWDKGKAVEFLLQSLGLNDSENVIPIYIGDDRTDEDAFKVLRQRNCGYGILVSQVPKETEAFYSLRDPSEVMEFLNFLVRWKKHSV


Tests used:
[1] = target: Oryza sativa trehalose-6-phosphate phosphatase, wild type (OsT6PP-WT) (Oryza sativa) (UniProt Q75WV3); experiment: cell-based or functional assay
[2] = target: T1, Oryza sativa trehalose-6-phosphate …
[3] = target: T2, N-terminal truncated OsT6PP-D56NT

Trehalose formed (µM), 20 min, mixture of OsT6PP-WT (1 µg/ml) and OsT6PP-H244D (10 µg/ml); WT alone 25.3, H244D alone 1.1 [1]	Trehalose formed (µM), 40 min, mixture of OsT6PP-WT (1 µg/ml) and OsT6PP-H244D (10 µg/ml); WT alone 33.6, H244D alone 4.6 [1]	Trehalose formed (µM), 60 min, mixture of OsT6PP-WT (1 µg/ml) and OsT6PP-H244D (10 µg/ml); WT alone 36.8, H244D alone 5.9 [1]	Binder	T6PP activity, trehalose formed (µM), 20 min, OsT6PP-WT (1 µg/ml) with 0.5 µg/mL OsT6PP-H244D; WT alone 28.7 [2]	T6PP activity, trehalose formed (µM), 20 min, OsT6PP-WT (1 µg/ml) with 1 µg/mL OsT6PP-H244D; WT alone 28.7 [2]	T6PP activity, trehalose formed (µM), 20 min, OsT6PP-WT (1 µg/ml) with 2 µg/mL OsT6PP-H244D; WT alone 28.7 [2]	T6PP activity, trehalose formed (µM), 20 min, OsT6PP-WT (1 µg/ml) with 5 µg/mL OsT6PP-H244D; WT alone 28.7 [2]	T6PP activity, trehalose formed (µM), 20 min, OsT6PP-WT (1 µg/ml) with 10 µg/mL OsT6PP-H244D; WT alone 28.7, H244D alone 2.2 [2]	T6PP activity, trehalose formed (µM), 20 min, OsT6PP-WT (1 µg/ml) with 20 µg/mL OsT6PP-H244D; WT alone 28.7, H244D alone 6.2 [2]	fold increase of T6PP activity [2]	trehalose 6-phosphate phosphatase activity (in vitro) [2]	fold increase of T6PP activity [3]
89.5 µM	155 µM	220 µM	Oryza sativa trehalose-6-phosphate phosphatase single modification H244D (OsT6PP-H244D) (protein) MDLSNSSPVITDPVAISQQLLGGLPSNLMQFSVMPGGYSSSGMNVGVSRLKIEEVLVNGLLDAMKSSSPRRRLNVAFGEDNSSEEEDPAYSAWMAKCPSALASFKQIVASAQGKKIAVFLDYDGTLSPIVDDPDKAVMSPVMRAAVRNVAKYFPTAIVSGRSRNKVFEFVKLKELYYAGSHGMDIMAPSANHEHSAEKSKQANLFQPAHDFLPMIDEVTKSLLQVVSGIEGATVENNKFCVSVDYRNVAEKDWKLVARLVNEVLEAFPRLKVTNGRMVLEVRPVIDWDKGKAVEFLLQSLGLNDSENVIPIYIGDDRTDEDAFKVLRQRNCGYGILVSQVPKETEAFYSLRDPSEVMEFLNFLVRWKKHSV	34.9 µM	40.1 µM	52.3 µM	71.7 µM	77.7 µM	101 µM	An approximately 3-fold increased T6PP activity was observed when OsT6PP-WT was assayed in presence of OsT6PP-H244D	Increased trehalose 6-phosphate phosphatase activity (in vitro) of OsT6PP-WT is observed in the presence of its catalytically inefficient variants, including OsT6PP-H244D, OsT6PP-H244S and OsT6PP-S242E	a 1.7 fold increase in T6PP activity was observed when N-terminal truncated OsT6PP-D56NT was mixed with OsT6PP-H244D
			OsT6PP-S242E (protein) MDLSNSSPVITDPVAISQQLLGGLPSNLMQFSVMPGGYSSSGMNVGVSRLKIEEVLVNGLLDAMKSSSPRRRLNVAFGEDNSSEEEDPAYSAWMAKCPSALASFKQIVASAQGKKIAVFLDYDGTLSPIVDDPDKAVMSPVMRAAVRNVAKYFPTAIVSGRSRNKVFEFVKLKELYYAGSHGMDIMAPSANHEHSAEKSKQANLFQPAHDFLPMIDEVTKSLLQVVSGIEGATVENNKFCVEVHYRNVAEKDWKLVARLVNEVLEAFPRLKVTNGRMVLEVRPVIDWDKGKAVEFLLQSLGLNDSENVIPIYIGDDRTDEDAFKVLRQRNCGYGILVSQVPKETEAFYSLRDPSEVMEFLNFLVRWKKHSV								Increased trehalose 6-phosphate phosphatase activity (in vitro) of OsT6PP-WT is observed in the presence of its catalytically inefficient variants, including OsT6PP-H244D, OsT6PP-H244S and OsT6PP-S242E	
			OsT6PP-H244S (protein) MDLSNSSPVITDPVAISQQLLGGLPSNLMQFSVMPGGYSSSGMNVGVSRLKIEEVLVNGLLDAMKSSSPRRRLNVAFGEDNSSEEEDPAYSAWMAKCPSALASFKQIVASAQGKKIAVFLDYDGTLSPIVDDPDKAVMSPVMRAAVRNVAKYFPTAIVSGRSRNKVFEFVKLKELYYAGSHGMDIMAPSANHEHSAEKSKQANLFQPAHDFLPMIDEVTKSLLQVVSGIEGATVENNKFCVSVSYRNVAEKDWKLVARLVNEVLEAFPRLKVTNGRMVLEVRPVIDWDKGKAVEFLLQSLGLNDSENVIPIYIGDDRTDEDAFKVLRQRNCGYGILVSQVPKETEAFYSLRDPSEVMEFLNFLVRWKKHSV								Increased trehalose 6-phosphate phosphatase activity (in vitro) of OsT6PP-WT is observed in the presence of its catalytically inefficient variants, including OsT6PP-H244D, OsT6PP-H244S and OsT6PP-S242E	
